# Source: patent publication US9175313B2, “Three-dimensional structure of isoprene synthase and its use thereof for generating variants” (Danisco US Inc., priority 2009, dated 2015)
# B1: L494P: P. alba IspS variant L494P; pDW101, strain DW399, SEQ ID NO: 69 (protein)
# chain: MEARRSANYEPNSWDYDYLLSSDTDESIEVYKDKAKKLEAEVRREINNEKAEFLTLLELIDNVQRLGLGYRFESDIRGALDRFVSSGGFDAVTKTSLHGTALSFRLLRQHGFEVSQEAFSGFKDQNGNFLENLKEDIKAILSLYEASFLALEGENILDEAKVFAISHLKELSEEKIGKELAEQVNHALELPLHRRTQRLEAVWSIEAYRKKEDANQVLLELAILDYNMIQSVYQRDLRETSRWWRRVGLATKLHFARDRLIESFYWAVGVAFEPQYSDCRNSVAKMFSFVTIIDDIYDVYGTLDELELFTDAVERWDVNAINDLPDYMKLCFLALYNTINEIAYDNLKDKGENILPYLTKAWADLCNAFLQEAKWLYNKSTPTFDDYFGNAWKSSSGPLQLVFAYFAVVQNIKKEEIENLQKYHDTISRPSHIFRLCNDLASASAEIARGETANSVSCYMRTKGISEELATESVMNLIDETWKKMNKEKLGGSPFAKPFVETAINLARQSHCTYHNGDAHTSPDELTRKRVLSVITEPILPFERENLYFQGLEHHHHHH
# How the values were obtained:
# [1] = kcat, KM and Ki determination, rate vs [DMAPP], fit to uncompetitive substrate inhibition; assay type: biochemical
# Description: 10 uL of purified enzyme was incubated with DMAPP at concentrations ranging from 1.25 to 20 mM DMAPP in a buffer containing 50 mM Tris, 50 mM MgCl2 and 50 mM NaCl (pH=8) to a final volume of 100 uL for 15 min. at 30 C in gas tight 2 mL vials. Reactions were terminated with the addition of 100 uL of 250 mM EDTA, pH=8. Samples were analyzed by GC-MS to determine the concentration of isoprene in the headspace of the vials. Data were analyzed using Kaleidagraph and fit to following equation for uncompetitive substrate inhibition: rate/E=kcat*S/(KM+S*(1+S/Ki)). All kinetic assays were performed in triplicate.
# Protein concentration was determined by measuring the absorbance of each protein solution at 280 nm on a Helwlett Pachard 8453 UV-Vis spectrophotometer and converting the absorbance to protein concentration using the extinction coefficient as determined on the Expasy website (Gasteiger E., Hoogland C., Gattiker A., Duvaud S., Wilkins M. R., Appel R. D., Bairoch A.; Protein Identification and Analysis Tools on the ExPASy Server; (In) John M. Walker (ed): The Proteomics Protocols Handbook, Humana Press (2005). pp. 571-607). The protein concentrations of isoprene synthase variants assayed for KM and kcat determination were verified by comparative gel electrophoresis of a dilution series of each protein (FIG. 61).
# [2] = Specific activity measurement of purified isoprene synthase variants (4 mM DMAPP, 30 C, GC-MS headspace); assay type: biochemical
# In short: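 Ni-affinity-purified, buffer-exchanged enzyme incubated with 4 mM DMAPP and 50 mM MgCl2 in 50 mM Tris, 50 mM NaCl, pH 8, for 15 min at 30 C in sealed vials; stopped with EDTA. Headspace isoprene quantified by GC-MS, in triplicate; protein concentration from A280 with calculated extinction coefficient.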
molecule,measurement,setting,value
B1,"KM compared to WT isoprene synthase, in words","[1]; 1.25 to 20 mM DMAPP, 30 C",less than the KM of the WT
same,rate profile vs [DMAPP],"[1]; 1.25 to 20 mM DMAPP, 30 C",uncompetitive substrate inhibition by DMAPP
same,Km,"[1]; 1.25 to 20 mM DMAPP, 30 C, average of three trials ± one standard deviation",3.6 ± 0.5 mM
same,kcat,"[1]; 1.25 to 20 mM DMAPP, 30 C, average of three trials ± one standard deviation, in s^-1 (unit assumed)",2.1 ± 0.1
same,"kcat compared to WT isoprene synthase, in words","[1]; 1.25 to 20 mM DMAPP, 30 C, listed as β",greater than the kcat of the WT
same,Ki,"[1]; uncompetitive substrate inhibition by DMAPP, average of three trials ± one standard deviation, read-out: KiDMAPP",13 ± 1 mM
same,S.A.,"[2]; 50 mM NaCl, 50 mM Tris pH = 8, 30° C.",950 ± 40 nmol/mg/min
same,Variant S.A./WT S.A.,"[2]; 50 mM NaCl, 50 mM Tris pH = 8, 30° C., ratio to WT",2.0
same,"specific activity compared to WT isoprene synthase, in words","[2]; 30 C, purified enzyme",increased specific activity
same,"specific activity, times/fold greater than WT","[2]; 30 C, purified enzyme, listed as P",2.0
same,"specific activity, times/fold greater than WT","[2]; 30 C, purified enzyme, listed as β",2
